From article PMC5137453 (Nucleic Acids Research, 2016)
Residue numbers refer to the chain shown, from its start. In names and notes the source's numbering stands.

Legend:
CPS-6 H148A/F122A = biological target: T1, CPS-6 H148A/F122A (Caenorhabditis elegans, UniProt Q95NM6 63-305, H148A;F122A); assay: X-ray crystallography
T1 sequence: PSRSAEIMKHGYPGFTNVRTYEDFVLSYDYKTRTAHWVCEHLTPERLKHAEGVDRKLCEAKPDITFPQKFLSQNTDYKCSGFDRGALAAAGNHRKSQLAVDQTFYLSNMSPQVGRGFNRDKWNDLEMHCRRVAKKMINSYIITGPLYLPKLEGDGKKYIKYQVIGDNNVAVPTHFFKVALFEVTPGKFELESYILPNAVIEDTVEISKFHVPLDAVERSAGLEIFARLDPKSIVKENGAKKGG

CPS-6 H148A/P207E = biological target: T2, CPS-6 H148A/P207E (Caenorhabditis elegans, UniProt Q95NM6 63-305, H148A;P207E); assay: filter binding
T2 sequence: T1 sequence with A60F, P145E

CPS-6 H148A = biological target: T3, CPS-6 H148A (Caenorhabditis elegans, UniProt Q95NM6 63-305, H148A); assay: filter binding
T3 sequence: T1 sequence with A60F

CPS-6 H148A/K131D/F132N = biological target: T4, CPS-6 H148A/K131D/F132N (Caenorhabditis elegans, UniProt Q95NM6 63-305, H148A;K131D;F132N); assay: filter binding
T4 sequence: T1 sequence with A60F, K69D, F70N

SEC = biological target: the molecule itself; assay: SEC

TTTTTTGT (ssDNA) [8-nt ssDNA (5'-TTTTTTGT-3')]
binding result (CPS-6 H148A/F122A): binds

ACGCTGCCGAATTCTGGCGTTAGGAGATACCGATAAGCTTCGGCTTAA (ssDNA) [48-nt ssDNA]
Kd (CPS-6 H148A/P207E): 804 nM
Kd (CPS-6 H148A): 159 nM
Kd (CPS-6 H148A/K131D/F132N): 659 nM

B1: CPS-6 H148A (enzyme)
chain: T1 sequence with A60F
stoichiometry N (SEC): 2

B2: CPS-6 H148A/F122A (enzyme)
chain: T1 sequence
stoichiometry N (SEC): 2
